B1: HDV Ribozyme (parent)
chain: GGCCGGCAUGGUCCCAGCCUCCUCGCUGGCGCCGGCUGGGCAACAUUCCGAGGGGACCGUCCCCUCGGUAAUGGCGAAUGGGACCCA

The data set covers variants of B1. Nature of the data set: self-cleavage, relative activity (ratio to wild type); higher = more cleavage; co-transcriptional.
As to G31C U69G, the self-cleavage came to 0.394.
The result for G11U C86A reads 0.489; that for C33G U60A, 0.19.
Then A8G G11C, with 0.0437; and A43U A78U, with 0.0489.
The result for C21U G52U reads 0.182; that for U65A C66A, 1.08.
Regarding G17C A77C, the self-cleavage amounted to 0.277.
For G5U A71C, the self-cleavage came to 0.
Consider G5U A71U, for which the self-cleavage amounted to 0.185.
The result for G5C G82C reads 0; that for C26G A42G, 0.639.
Then C4U U12C, with 0.145; and G40U G81U, with 0.0989; and C4U C7A, with 0.104.
Then C24U C48U, with 0.604.
As to G50U A78U, the self-cleavage worked out at 0.229.
With C19A G76A, the self-cleavage was found to be 0.185.
The result for A42C C49G reads 0.178.
Then G2C C41U, with 0.0475; and C15U A43G, with 0.138.
Then G31A C44U, with 0.0898.
On to C30G C48G, for which the self-cleavage came out at 0.119.
Then C14G C30U, with 0.0396.
For A51C U72A, the self-cleavage was found to be 0.609.
Then C21U A45C, with 0.0256; and C49G C57G, with 0.997.
Then C19A C24A, with 0.0831; and C14U C62A, with 1.06; and G6U G39A, with 0.0811.
Turning to G55C U60G, the self-cleavage is 0.898.
Then C75U G80C, with 0.142; and A43U G74C, with 0.125; and C44U G55U, with 0.831.
The result for G17A A77C reads 0.0978.
Then U27G G39C, with 0.0723; and G1C, with 0.179.
With C7G G31A, the self-cleavage was 0.441.
The result for A43G C58A reads 0.629.
Then U23C G35C, with 0.115.
On to G39C G73U, for which the self-cleavage was 0.106.
Then G28A A43G, with 0.0739; and U37G G59U, with 0.256; and C4G C64G, with 0.259.
Then C30A A77G, with 0.224.
Then C18A U37A, with 0.0462.
For the variant C15A A70C, the self-cleavage is 0.554.
Then G55A C64G, with 0.962; and U46C A78C, with 0.0426; and C49U G55C, with 0.906.
Then C63U A70G, with 1.02; and C30G C36G, with 0.0594.
The result for C24U A83G reads 0.394; that for C21A G59C, 0.116; that for C30G C85U, 0.0302.
On to C18U G53C, for which the self-cleavage came to 0.607.
With C4U C15G, the self-cleavage stood at 0.262.
The result for C44U U72A reads 0.678; that for U9G A70C, 0.886.
The result for U23A G35A reads 0.864; that for G2A C85U, 0.115; that for C41U C44A, 0.353.
With G11C C61G, the self-cleavage turned out to be 0.217.
The result for G73A G76A reads 0.665.
Then U47C C84A, with 0.554; and C14U A83C, with 0.499.
Then C15G G39U, with 0.128; and C13G A83C, with 0.222; and C33A G74C, with 0.106.
Consider U20C C85G, for which the self-cleavage turned out to be 0.0519.
Then C57A C64U, with 1; and C57G U65G, with 0.85.
Then G11U G40U, with 0.18.
Then C22U U79G, with 0.178; and C3U C62G, with 0.415.
Regarding A42G C75U, the self-cleavage came out at 0.397.
As for G40U G74U, the self-cleavage came out at 0.468.
Then C41G G73U, with 0.378.
Then C32A G50A, with 0.136; and C30U G76A, with 0.862.
Then A43C A56C, with 0.59; and G6C C21A, with 0.
Consider G5C U12A, for which the self-cleavage is 0.0791.
In the case of U20G A51G, the self-cleavage worked out at 0.145.
As to G6C C32A, the self-cleavage is 0.482.
The result for G31A G52A reads 0.46; that for A51U A78U, 0.282; that for A77U A83G, 0.261.
Then G35C G39U, with 0.0302; and U12C C49A, with 0.322.
As for C33U C58A, the self-cleavage came to 1.06.
Then A56C C86G, with 0.804; and A8G C13G, with 0.0923; and C19A C66U, with 0.116.
Then C32U G59C, with 0.734; and C14A U27G, with 0.895.
A8G C64U: the self-cleavage was 1.07.
The result for G6U C44U reads 0.162; that for C18U A43C, 0.295; that for C13G G52C, 0.0475.
The result for U23G C33A reads 0; that for G17A C24G, 0.0791; that for A8G U27G, 0.831.
Then G6A G39A, with 0.277; and U12G G50A, with 0.787; and C3G A83G, with 0.289.
C19A G53U: the self-cleavage was found to be 0.157.
Then G2C U72G, with 0.0791; and C4G U37C, with 0.375.
The result for C33A C62G reads 0.208.
In the case of C22G C48U, the self-cleavage turned out to be 0.0594.
The result for A8G U20A reads 0.151; that for G38U G76U, 0.237; that for G55C A70G, 0.848.
For C62G A87U, the self-cleavage turned out to be 0.716.
The result for U27G C44G reads 0.598; that for G35C G81U, 0.0739; that for G50A C62A, 0.694.
Then C18A C22A, with 0.117.
Then C13A G52U, with 0.225.
On to C33G U65G, for which the self-cleavage amounted to 0.222.
A8G G80C: the self-cleavage came out at 0.172.
Then A42C C86U, with 0.178; and G53U A70C, with 0.774; and C63G A83U, with 0.271.
The result for C4A A87G reads 0.233; that for C4A A87C, 0.21; that for G25A C63U, 0.289.
The result for C44G G74C reads 0.185.
Regarding G28C G81U, the self-cleavage was 0.0639.
Then A56G C86A, with 0.718.
Then G34A A83C, with 0.203; and C58G G80A, with 0.332.
Then C63U G67U, with 1.02.
Turning to G5C G40U, the self-cleavage stood at 0.104.
The result for G28U A71C reads 0; that for C21G G76A, 0.0386; that for G31U C86U, 0.453.
The result for G5U G54A reads 0.314; that for C13U G53A, 0.77; that for U37G G39A, 0.0811.
The result for G28U reads 0.108; that for A8C G39C, 0.0615.
With U12G A56C, the self-cleavage amounted to 0.831.
Consider U12G C14U, for which the self-cleavage is 1.2.
The result for C32G G53A reads 0.205; that for G68C G82C, 0.259; that for G34A A87G, 0.159.
As to G28U C64G, the self-cleavage stood at 0.102.
The result for G6C C66G reads 0.332; that for U20A A45G, 0; that for G2C C62G, 0.0852.
Then U20A G50A, with 0.0449; and C33U C57A, with 0.935; and C41A G82A, with 0.223.
The result for U9G U69A reads 0.831; that for C30G U79C, 0.0496.
In the case of C4A G81A, the self-cleavage came out at 0.0468.
Then C33G U69G, with 0.123; and C41G C58U, with 0.746; and G29A U47C, with 0.16.
Then C58A U79G, with 0.772.
The result for U47C A83U reads 0.378; that for G11C C75U, 0.185.
As to A78U G81A, the self-cleavage was determined as 0.182.
Then G39U U60C, with 0.772; and G50A G73U, with 0.369.

The values are drawn from the RNAGym collection of RNA variant scans (doi:10.7554/elife.80360).
